US20250136677A1 (ZOETIS SERVICES, published 2025)
Substitutions are numbered along the chain they refer to. Numbers in names are those of the source.

T1: canine IL-31 protein (Canine_IL31) (canine)
T1 chain: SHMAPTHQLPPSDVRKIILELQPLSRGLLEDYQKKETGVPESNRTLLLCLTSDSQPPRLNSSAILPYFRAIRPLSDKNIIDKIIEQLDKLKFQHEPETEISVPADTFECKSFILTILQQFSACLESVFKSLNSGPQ

T2: wildtype feline IL-31 protein (Feline_IL31_wildtype) (feline)
T2 construct: Full length feline IL-31 with C-terminal His tag, secreted from ExpiCHO cells; also called fIL-31
T2 chain: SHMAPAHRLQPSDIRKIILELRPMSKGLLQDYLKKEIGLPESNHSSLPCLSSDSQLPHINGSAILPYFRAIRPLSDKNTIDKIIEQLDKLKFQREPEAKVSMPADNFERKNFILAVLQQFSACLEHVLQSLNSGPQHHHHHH

B1: Feline_11E12 1.1_K46Q (antibody, V domains shown)
VH: QVLLVQSGAEVKKPGASVKIFCKASGYSFTYYDINWLRQAPEQGLEWMGWIFPGDGGTKYNETFKGRLTLTADTSTNTVYMELSSLRSADTAMYYCARGGTSVIRDAMDYWGQGALVTVSS
VL: EIQMTQSPSSLSASPGDRVTITCRASESVDNYGISFMHWYQQKPGQVPKLLIYRASNLESGVPSRFSGSGSGTDFTLTISSLEPEDAATYYCQQSNKDPLTFGQGTKLEIK
notes: felinized 11E12 with the single VL substitution K46Q; copies: 2 + 2
B2: A30 (antibody, V domains shown)
VH: QVLLVQSGAEVRTPGASVKIFCKASGYSFASYTIHWLRQAPAQGLEWMGNINPTSGYTENNQRFKDRLTLTADTSTNTAYMELSSLRSADTAMYYCARWGFKYDGEWSFDVWGAGTTVTVSS
VL: EIQMTQSPSSLSASPGDRVTITCRASQGISIWLSWYQQKPGNIPKVLINKASNLHIGVPSRFSGSGSGTDFTLTISSLEPEDAATYYCLQSQTYPLTFGGGTKLEIK
B3: Feline 15H05 1.1 FW1_3 (antibody, V domains shown)
VH: B2 VH with A30T
VL: DIQMNQSPSSLSASLGDTITVTCRASQGISIWLSWYQQKPGKVPKLLIYKASNLHIGVPPRFSGSGSGTHFTLTITSLQPEDIATYYCLQSQTYPLTFGGGTKLEIK
notes: Printed as 'Feline 15H05 1.1 FW13'
B4: Feline 15H05 1.2 (antibody, V domains shown)
VH: B2 VH with A30T
VL: EITMTQSPGSLAGSPGQQVTMNCRASQGISIWLSWYQQKPGQHPKLLIYKASNLHIGVPDRFSGSGSGTDFTLTISNLQAEDVASYYCLQSQTYPLTFGGGTKLEIK
notes: Feline heavy and kappa constant regions
B5: Feline 15H05 1.3 (antibody, V domains shown)
VH: B2 VH with A30T
VL: EVVLTQSSAFLSRTLKEKATITCRASQGISIWLSWYQQKPNQAPKLLVKKASNLHIGAPSRFSGSGSGTDFTLTISSPEPEDAATYYCLQSQTYPLTFGGGTKLGDQ
notes: as for B4
B6: Feline 15H05 VH3 mouse VL (antibody, V domains shown)
VH: B2 VH with T13K, A30T, A42E
VL: B3 VL with K42N, V43I, L46V, Y49N, K107N
notes: Heterochimeric antibody; also called felinized 15H05 VH3 with mouse 15H05 VL (heterochimera)
B7: A34 (antibody, V domains shown)
VH: B2 VH with A30T, T33A
VL: B2 VL
B8: A40 (antibody, V domains shown)
VH: B2 VH with A30T, P53A
VL: B2 VL
B9: A50 (antibody, V domains shown)
VH: B2 VH with A30T, Q62A
VL: B2 VL
B10: A32 (antibody, V domains shown)
VH: B2 VH with A30T, S31A
VL: B2 VL
B11: A43 (antibody, V domains shown)
VH: B2 VH with A30T, S55A
VL: B2 VL
B12: A36 (antibody, V domains shown)
VH: B2 VH with A30T, H35A
VL: B2 VL
B13: Feline 15H05 3.2 (antibody, V domains shown)
VH: B2 VH with T13K, A30T, A42E
VL: B4 VL
notes: as for B4
B14: A37 (antibody, V domains shown)
VH: B2 VH with A30T, N50A
VL: B2 VL
B15: A45 (antibody, V domains shown)
VH: B2 VH with A30T, Y57A
VL: B2 VL
B16: Feline 15H05 2.2 (antibody, V domains shown)
VH: B2 VH with S28G, A30T, L37V, A40S
VL: B4 VL
notes: as for B4
B17: A47 (antibody, V domains shown)
VH: B2 VH with A30T, E59A
VL: B2 VL
B18: A39 (antibody, V domains shown)
VH: B2 VH with A30T, N52A
VL: B2 VL
B19: A55 (antibody, V domains shown)
VH: B2 VH with A30T, K102A
VL: B2 VL
B20: A44 (antibody, V domains shown)
VH: B2 VH with A30T, G56A
VL: B2 VL
B21: A57 (antibody, V domains shown)
VH: B2 VH with A30T, D104A
VL: B2 VL
B22: A35 (antibody, V domains shown)
VH: B2 VH with A30T, I34A
VL: B2 VL
B23: A49 (antibody, V domains shown)
VH: B2 VH with A30T, N61A
VL: B2 VL
B24: A52 (antibody, V domains shown)
VH: B2 VH with A30T, W99A
VL: B2 VL
B25: A38 (antibody, V domains shown)
VH: B2 VH with A30T, I51A
VL: B2 VL
B26: A48 (antibody, V domains shown)
VH: B2 VH with A30T, N60A
VL: B2 VL
B27: A54 (antibody, V domains shown)
VH: B2 VH with A30T, F101A
VL: B2 VL
B28: A42 (antibody, V domains shown)
VH: B2 VH with A30T, T54A
VL: B2 VL

Columns and labels:
[1] = target: T1, canine IL-31 protein (Canine_IL31); experiment: SPR (Biacore), IL-31 on chip, 1:1 fit
[2] = target: T2, wildtype feline IL-31 protein …; experiment: SPR (Biacore), IL-31 on chip, 1:1 fit
Method: The affinity with which candidate mAbs bind canine and feline IL-31 was determined using surface plasmon resonance (SPR) on a Biacore system (Biocore Life Sciences (GE Healthcare), Uppsala, Sweden). To avoid affinity differences associated with differential surface preparation that can occur when immobilizing antibodies to surfaces; a strategy was employed where IL-31 was directly conjugated to the surface. Immobilization was obtained by amine coupling 5 μg/mL IL-31 using N-hydroxysuccinimide (NHS)/1-Ethyl-3-(3-dimethylaminopropyl) carbodiimide (EDC) chemistry. Chips were quenched with ethanolamine and the affinity with which all candidate mAbs bound to the immobilized IL-31 was evaluated. All curves were fit to a 1:1 model. […] Results for affinity measurements are described herein.

[3] = target: T2, wildtype feline IL-31 protein …; experiment: cell-based or functional assay
[4] = target: T2, wildtype feline IL-31 protein …; experiment: Biacore, feline IL-31 chip, mAb 100 nM, share of points within parent mean +/-3 SD; parameters: key: % of mutant data points within parent mAb mean ±3 SD
Text: The mean response unit of four replicates of the parent mAb+/−3 standard deviations was used to generate parameters to define a threshold of response units comprising both the on- and off-rates antibody binding (FIG. 22). The percentage of data points for each mutant fell within this threshold was then used to define a “% similarity score” (FIG. 23).

| Binder | koff [1] [s⁻¹] | kon [1] [M⁻¹ s⁻¹] | Kd [2] [nM] | koff [2] [s⁻¹] | kon [2] [M⁻¹ s⁻¹] | % Inhibition Relative to Parent (pSTAT, FCWF-4 cells) [3] [%] | Binding Similarity score [4] |
| --- | --- | --- | --- | --- | --- | --- | --- |
| B1 | 8.85e-05 | 46400 | 12.6 | 0.000145 | 11500 | – | – |
| B2 | – | – | – | – | – | 28.4 | 79 |
| B3 | 2.88e-08 | 6590 | 0.0674 | 3.02e-05 | 448000 | – | – |
| B4 | 0.000115 | 33000 | 104 | 0.00147 | 14100 | – | – |
| B5 | 0.00019 | 29700 | 86.4 | 0.00328 | 38000 | – | – |
| B6 | 2.64e-07 | 100000 | 0.177 | 1.57e-05 | 88900 | – | – |
| B7 | – | – | – | – | – | 0 | 3.37 |
| B8 | – | – | – | – | – | 5.7 | 2.7 |
| B9 | – | – | – | – | – | 55.5 | 58.6 |
| B10 | – | – | – | – | – | 40.3 | 39.2 |
| B11 | – | – | – | – | – | 47.4 | 100 |
| B12 | – | – | – | – | – | 25.2 | 10.4 |
| B13 | 6.04e-06 | 29700 | 12.6 | 0.00166 | 132000 | – | – |
| B14 | – | – | – | – | – | 52.1 | 46.1 |
| B15 | – | – | – | – | – | 22.8 | 31.9 |
| B16 | 1.09e-05 | 27700 | 2.15 | 0.00195 | 905000 | – | – |
| B17 | – | – | – | – | – | 18 | 100 |
| B18 | – | – | – | – | – | 25.1 | 100 |
| B19 | – | – | – | – | – | 66.8 | 12.6 |
| B20 | – | – | – | – | – | 36.9 | 55.8 |
| B21 | – | – | – | – | – | 85.4 | 38.9 |
| B22 | – | – | – | – | – | 92.5 | 97.5 |
| B23 | – | – | – | – | – | 46.6 | 37 |
| B24 | – | – | – | – | – | -2.1 | 2.4 |
| B25 | – | – | – | – | – | 42.2 | 55.1 |
| B26 | – | – | – | – | – | 47.3 | 70.2 |
| B27 | – | – | – | – | – | -1 | 17.6 |
| B28 | – | – | – | – | – | 83.6 | 44.9 |
